Reference: PMC12319226 (Frontiers in Bioinformatics, 2025)
Residue numbers refer to the chain shown, from its start.

B1: chimeric antibody h12C1 (antibody, V domains shown)
VH: QVQLQESGPELVKPGASVKISCKASGYSFSDYNMSWVKQSNGKSLEWIGIIDPKYGTINYNQKFKGKATLTVDQASSTAYMQLNSLTSEDSAVYYCVRDYYGSSYFDYWGQGTTLTVSS
VL: DIVLTQSPSSIYASLGERVTLTCKASQDIHNYLNWFQQKPGKSPKTLIYRANRLVDGVPSRFSGGGSGQDYSLTISSLEFEDIGIYYCLQYDEFPPTFGGGTRLEIK
notes: also called humanized 12C1; source: Expi293, purified (MabSelect SuRe, SEC); copies: 2 + 2
B2: mAb 1E6 (human) (antibody, V domains shown)
VH: EVQLVQSGAEVKKPGSSVKVSCKASGGTVIDYPITWVRQAPGQGLEWVGGFVPLFRTSNYGQKFQGRVTITADKSTSTASMELNSLTSEDTAIYYCARGDTAMGPFDYWGQGTLVTVSS
VL: SYVLTQPPSLSVAPGKTATLTCGGNNIAGKTVHWYQQRPGQAPVLVISYDSDRPSGIPERFSGSNSANTATLTISRVEAGDEADYYCQVWDRNSDHWVFGGGTKLTVL
notes: source: Expi293, purified (MabSelect SuRe, SEC); copies: 2 + 2

Key:
Experiment in all cases: BLI
Details in all cases: both partners purified
[1] = target: T1, fHbp m001688 (Neisseria meningitidis, engineered fHbp …, point mutant)
T1 chain: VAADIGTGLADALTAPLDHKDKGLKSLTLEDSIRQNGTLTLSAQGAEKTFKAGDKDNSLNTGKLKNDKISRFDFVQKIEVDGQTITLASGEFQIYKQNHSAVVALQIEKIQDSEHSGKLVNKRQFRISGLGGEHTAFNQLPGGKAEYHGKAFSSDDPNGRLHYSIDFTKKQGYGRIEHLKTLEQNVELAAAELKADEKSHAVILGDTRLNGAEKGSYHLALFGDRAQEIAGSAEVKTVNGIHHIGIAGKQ

[2] = target: T2, fHbp m002419 (Neisseria meningitidis fHbp v3.28, …, chimera)
T2 chain: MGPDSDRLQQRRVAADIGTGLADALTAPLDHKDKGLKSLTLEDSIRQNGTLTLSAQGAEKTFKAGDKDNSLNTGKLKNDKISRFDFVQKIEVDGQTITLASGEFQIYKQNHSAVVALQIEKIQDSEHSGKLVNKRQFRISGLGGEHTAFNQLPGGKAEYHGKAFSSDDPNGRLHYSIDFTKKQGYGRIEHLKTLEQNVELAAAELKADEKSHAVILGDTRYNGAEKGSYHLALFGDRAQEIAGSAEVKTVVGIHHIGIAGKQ

[3] = target: T3, fHbp m001040 (Neisseria meningitidis fHbp v3.28-based …, point mutant)
T3 chain: T2 chain with Y221L, N222G, G223Q, V251N

[4] = target: T4, fHbp m001690 (Neisseria meningitidis, engineered fHbp …, point mutant)
T4 chain: T1 chain with G240A

[5] = target: T5, fHbp m001199 (Neisseria meningitidis fHbp v3.28-based …, point mutant)
T5 chain: T2 chain with Y221L, N222G, V251E

[6] = target: T6, fHbp m001659 (Neisseria meningitidis, fHbp …, point mutant)
T6 chain: T2 chain with Y221L, T249S, V251E, G252S

[7] = target: T7, fHbp m002281 (Neisseria meningitidis, engineered fHbp …, chimera)
T7 chain: T1 chain with L209Y, G211Q, T237I

[8] = target: T8, fHbp m002414 (Neisseria meningitidis fHbp v3.28, …, chimera)
T8 chain: T2 chain with V251E, G252S

[9] = target: T9, fHbp m001099 (Neisseria meningitidis fHbp v3.28-based …, point mutant)
T9 chain: T2 chain with Y221L, N222G, G223S, T249S, G252A

Binder	Kd [1] [nM]	koff [1] [s⁻¹]	kon [1] [M⁻¹ s⁻¹]	Kd [2] [nM]	koff [2] [s⁻¹]	kon [2] [M⁻¹ s⁻¹]	Kd [3] [nM]	koff [3] [s⁻¹]	kon [3] [M⁻¹ s⁻¹]	Kd [4] [nM]	koff [4] [s⁻¹]	kon [4] [M⁻¹ s⁻¹]	Kd [5] [nM]	koff [5] [s⁻¹]	kon [5] [M⁻¹ s⁻¹]	Kd [6] [nM]	koff [6] [s⁻¹]	kon [6] [M⁻¹ s⁻¹]	Kd [7] [nM]	koff [7] [s⁻¹]	other results
B1	53.8	0.0106	197000 ± 3980	0.237	3.39e-05	143000 ± 1520	0.523	0.000192	368300 ± 1820	0.525	0.000185	351700 ± 1560	25.1	0.0095	378900 ± 3300	1.75	0.000578	330000 ± 3440	34.9	0.0105	kon [7]: 300000 ± 6700 M⁻¹ s⁻¹; Kd [8]: 66.4 nM; koff [8]: 0.00858 s⁻¹; kon [8]: 129000 ± 5630 M⁻¹ s⁻¹; Kd [9]: 44 nM; koff [9]: 0.0106 s⁻¹; kon [9]: 241000 ± 3220 M⁻¹ s⁻¹
B2	0.937	0.000258	275900 ± 1570	0.191	5.3e-05	277200 ± 2090	0.594	0.000266	447100 ± 3340	0.678	0.000298	438900 ± 1790	0.329	0.000132	400500 ± 3250	0.716	0.000306	427300 ± 1410	0.217	0.0001	kon [7]: 462500 ± 3370 M⁻¹ s⁻¹; Kd [8]: 1.09 nM; koff [8]: 0.000223 s⁻¹; kon [8]: 205200 ± 950 M⁻¹ s⁻¹; Kd [9]: 0.841 nM; koff [9]: 0.000237 s⁻¹; kon [9]: 281500 ± 1290 M⁻¹ s⁻¹
